# According to US20120129237A1:
# Target: LDLR (LDL receptor) of HepG2 cells (UniProt P01130)
# Test: cell-based or functional assay
substance,measurement,value
PCSK9c polypeptide (novel PCSK9 variant) (from UniProt Q8NBP7 175-692) (enzyme),"LDL uptake assay (DiI-LDL, HepG2 cells) (% more function than wildtype PCSK9)",50
